Test results as given in article PMC7913777, “Allosteric effects of SSB C-terminal tail on assembly of E. coli RecOR proteins” (Nucleic Acids Research, 2021).
Where “and” joins values, the source holds several entries; their conditions need not be identical. Equal entries are not always repeated.

Key:
[1] = target: T1, E. coli RecR tetramer (E. coli, UniProt P0A7H6 1-201); assay: AUC; sedimentation equilibrium, RecO 1.5 μM + RecR 1.5 μM monomer (1:1), no P15, buffer BTP (pH 8), 25°C, 18 000, 23 000, 28 000 rpm; two-species model, free RecO fixed
T1 construct: RecR, E. coli; tetramer 87.8 kDa; Same preparation as m2; the tetrameric state, which is the one found in complexes with RecO; also called RecR4; R4; source: E. coli BL21 Rosetta 2(DE3)pLysS, purified (Ni-NTA)
T1 sequence (looked up): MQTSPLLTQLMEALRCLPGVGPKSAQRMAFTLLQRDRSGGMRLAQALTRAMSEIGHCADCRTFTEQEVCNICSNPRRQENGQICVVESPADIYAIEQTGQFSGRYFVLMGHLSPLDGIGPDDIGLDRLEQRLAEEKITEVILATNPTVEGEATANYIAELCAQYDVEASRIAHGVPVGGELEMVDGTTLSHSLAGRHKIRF

[2] = target: T1, E. coli RecR tetramer; assay: AUC; sedimentation equilibrium, RecO 1.5 μM + RecR 6 μM monomer (1:4), no P15, buffer BTP (pH 8), 25°C, 18 000, 23 000, 28 000 rpm; two-species model, free RecR dimer fixed
[3] = target: T1, E. coli RecR tetramer; assay: AUC; sedimentation velocity, RecO (1.5 μM) titrated with RecR (1.5-9 μM monomer; 1:1 to 1:6), no P15, buffer BTP (pH 8.0), 25°C; K3 and K4 from SedAnal simulations (Scheme 1) that best describe the c(s) profiles
[4] = target: Escherichia coli RecR protein (E. coli) (UniProt P0A7H6); assay: AUC; sedimentation equilibrium of RecR alone, buffer BTP, 37°C; dimers to tetramer
[5] = target: Escherichia coli RecR protein (E. coli) (UniProt P0A7H6); assay: AUC; sedimentation equilibrium of RecR alone, buffer BTP pH 8.0 with 200 mM NaCl, 25°C; dimers to tetramer
[6] = target: Escherichia coli RecR protein (E. coli) (UniProt P0A7H6); assay: AUC; sedimentation equilibrium of RecR alone, buffer BTP pH 8.0, 50 mM NaCl + 10 mM MgCl2, 25°C; dimers to tetramer
[7] = target: Escherichia coli RecR protein (E. coli) (UniProt P0A7H6); assay: AUC; sedimentation velocity of RecR alone, eight concentrations 2-20 μM (monomer), buffer BTP (pH 8.0), 25°C, 233 nm
[8] = target: Escherichia coli RecR protein (E. coli) (UniProt P0A7H6); assay: AUC; sedimentation equilibrium of RecR alone, 4, 8 and 12 μM (monomer), buffer BTP pH 6.4, 50 mM NaCl, 25°C; dimers to tetramer, Lobs = [R4]/[R2]^2
[9] = target: Escherichia coli RecR protein (E. coli) (UniProt P0A7H6); assay: AUC; sedimentation equilibrium of RecR alone, 4, 8 and 12 μM (monomer), buffer BTP pH 7.0, 50 mM NaCl, 25°C; dimers to tetramer, Lobs = [R4]/[R2]^2
[10] = target: Escherichia coli RecR protein (E. coli) (UniProt P0A7H6); assay: AUC; sedimentation equilibrium of RecR alone, 4, 8 and 12 μM (monomer), buffer BTP pH 7.5, 50 mM NaCl, 25°C; dimers to tetramer, Lobs = [R4]/[R2]^2
[11] = target: Escherichia coli RecR protein (E. coli) (UniProt P0A7H6); assay: AUC; sedimentation equilibrium of RecR alone, 4, 8 and 12 μM (monomer), buffer BTP pH 8.5, 50 mM NaCl, 25°C; dimers to tetramer, Lobs = [R4]/[R2]^2
[12] = target: Escherichia coli RecR protein (E. coli) (UniProt P0A7H6); assay: AUC; sedimentation equilibrium of RecR alone, 4, 8 and 12 μM (monomer), buffer BTP pH 9.0, 50 mM NaCl, 25°C; dimers to tetramer, Lobs = [R4]/[R2]^2
[13] = target: Escherichia coli RecR protein (E. coli) (UniProt P0A7H6); assay: AUC; sedimentation equilibrium of RecR alone, 4, 8 and 12 μM (monomer), buffer BTP pH 8.0, 50 mM NaCl, 25°C; dimers to tetramer, Lobs = [R4]/[R2]^2; at 8 μM also a two-species model with the second mass floated
[14] = target: T2, Escherichia coli RecO protein (E. coli, UniProt P0A7H3 1-242); assay: ITC; pH 8, 25°C
T2 chain: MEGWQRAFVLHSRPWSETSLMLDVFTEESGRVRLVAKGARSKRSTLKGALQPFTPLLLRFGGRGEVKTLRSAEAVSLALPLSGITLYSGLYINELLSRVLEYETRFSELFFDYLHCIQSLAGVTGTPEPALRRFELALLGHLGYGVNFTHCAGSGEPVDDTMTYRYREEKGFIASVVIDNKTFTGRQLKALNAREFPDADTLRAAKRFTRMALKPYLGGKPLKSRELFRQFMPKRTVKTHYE

[15] = target: T3, RecOR complex (pre-mixed RecO and RecR, 1:4 molar ratio) (E. coli, UniProt P0A7H3 1-242; P0A7H6 1-201); assay: ITC; P15 (50 μM) titrated into a pre-mixed solution of RecO (2 μM) and RecR (8 μM monomer), buffer BTP, pH 8.0, 25°C; details: both partners purified
T3 construct: RecO, E. coli; as m1; RecR, E. coli; as m2; also called pre-mixed solution of RecO (2 μM) and RecR (8 μM monomer); source: purified RecO and purified RecR (both from E. coli), pre-mixed; copies: + 4
T3 sequence (looked up) 1: T2 chain
T3 sequence (looked up) 2: T1 sequence (looked up)

[16] = target: T1, E. coli RecR tetramer; assay: AUC; sedimentation equilibrium, RecO 1.5 μM + RecR 6 μM (1:4) with P15 (9 μM), buffer BTP (pH 8), 25°C, 19 000, 24 000, 29 000 rpm; one-species model; details: both partners purified
[17] = target: T1, E. coli RecR tetramer; assay: AUC; sedimentation equilibrium, RecO 1.5 μM + RecR 1.5 μM (1:1) with P15 (9 μM), buffer BTP (pH 8), 25°C, 19 000, 24 000, 29 000 rpm; two-species model; details: both partners purified
[18] = target: T1, E. coli RecR tetramer; assay: AUC; sedimentation equilibrium, RecR 2 μM monomer, RecO 6 μM (3:1), P15 36 μM, buffer BTP (pH 8.0), 25°C, 19 000, 24 000, 29 000 rpm; two-species model, RecO-P15 fixed at 29.1 kDa; details: both partners purified

Molecule: Escherichia coli RecO protein (from UniProt P0A7H3 1-242) (natural protein)
- stoichiometry N (RecO per RecR tetramer) [1]: 2
- stoichiometry N (RecO per RecR tetramer) [2]: 2
- K3 (association constant, first RecO to RecR4) [3]: 500000 M⁻¹
- K4 (association constant, second RecO to RecR4O) [3]: 4e+08 M⁻¹

Molecule: Escherichia coli RecR protein (from UniProt P0A7H6 1-201) (natural protein)
- Ka [4]: 149000 M⁻¹
- Ka [5]: 34900 M⁻¹
- Ka [6]: 72000 M⁻¹
- stoichiometry N [7]: 2 and 4
- Ka [8]: 267000 M⁻¹
- Ka [9]: 1.65e+06 M⁻¹
- Ka [10]: 568000 M⁻¹
- Ka [11]: 4320 M⁻¹
- Ka [12]: < 500 M⁻¹
- Ka [13]: 216000 M⁻¹
- stoichiometry N [13]: 4

B1: P15 peptide (the 15 C-terminal amino acids of E. coli SSB) (peptide)
peptide: PSNEPPMDFDDDIPF
notes: the 15 C-terminal amino acids of E. coli SSB; also called SSB-Ct peptide; SSB C-terminal acidic tip peptide; source: bought: WatsonBio
- Ka [14]: 1.2e+07 M⁻¹
- dH [15]: < 1 kcal/mol

B2: RecO–P15 complex (complex, E. coli)
chain: T2 chain
peptide: PSNEPPMDFDDDIPF
notes: RecO, E. coli; as m1; the 15 C-terminal amino acids of E. coli SSB; as m3; 29.1 kDa; also called RecO in the presence of a 6-fold molar excess of P15; source: RecO from E. coli BL21(DE3)pLysS, purified; P15 bought: WatsonBio; mixed with a six-fold molar excess of P15 over RecO; copies: 1 + 1
- stoichiometry N [16]: 1 RecO per RecR tetramer
- stoichiometry N [17]: 2 RecO per RecR tetramer
- stoichiometry N [18]: 2 RecO-P15 per RecR tetramer
